Measurements reported in patent US20030171255.
Read-outs that look alike come from different tables or passages of the source.

T1: recombinant DARPP-32 phosphorylated in vitro at Ser137 by CK1
T1 sequence (Q9UD71 1-204, species assumed, looked up): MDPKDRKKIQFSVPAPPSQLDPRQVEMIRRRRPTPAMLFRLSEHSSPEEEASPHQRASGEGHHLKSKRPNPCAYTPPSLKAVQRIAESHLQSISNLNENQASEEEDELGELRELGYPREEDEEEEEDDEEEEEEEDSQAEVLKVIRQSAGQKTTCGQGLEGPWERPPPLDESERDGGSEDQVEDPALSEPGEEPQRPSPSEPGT


Tests used:
[1] = system: recombinant DARPP-32
[2] = system: recombinant DARPP-32 phosphorylated in vitro at Ser137 by CK1
[3] = target: T1, recombinant DARPP-32 phosphorylated in …; remark: listed apart in the source

Molecule	dephosphorylation of phospho-Ser137-DARPP-32 (release of 32P) [2]	KM [3] [µM]	Vmax, µmol mg^-1 min^-1 (µmol mg^-1 min^-1) [3]	dephosphorylation of phospho-Ser137-DARPP-32 (release of 32P) [3]	kcat [3] [s⁻¹]	kcat/KM [3] [M⁻¹ s⁻¹]	further results
CK1 (casein kinase 1) obtained from New England BioLabs							stoichiometry of in vitro phosphorylation at Ser137 [1]: stoichiometry of 1 mol/mol
recombinant His-tagged PP2Cd (protein phosphatase 2C delta isoform) cloned from rat striatum	PP2Cd did not dephosphorylate phospho-Ser137-DARPP-32						
recombinant His-tagged PP2Cb (protein phosphatase 2C beta isoform) cloned from rat striatum	the PP2Ca, b and g demonstrated similar initial rates of dephosphorylation						KM [2]: 25.3 µM; Vmax, µmol mg^-1 min^-1 (µmol mg^-1 min^-1) [2]: 0.99; kcat [2]: 0.78 s⁻¹; kcat/KM [2]: 31000 M⁻¹ s⁻¹
recombinant His-tagged PP2Ca (protein phosphatase 2C alpha isoform) cloned from rat striatum (protein) MGAFLDKPKMEKHNAQGQGNGLRYGLSSMQGWRVEMEDAHTAVIGLPSGLETWSFFAVYDGHAGSQVAKYCCEHLLDHITNNQDFKGSAGAPSVENVKNGIRTGFLEIDEHMRVMSEKKHGADRSGSTAVGVLISPQHTYFINCGDSRGLLCRNRKVHFFTQDHKPSNPLEKERIQNAGGSVMIQRVNGSLAVSRALGDFDYKCVHGKGPTEQLVSPEPEVHDIERSEEDDQFIILACDGIWDVMGNEELCDFVRSRLEVTDDLEKVCNEVVDTCLYKGSRDNMSVILICFPNAPKVSAEAVKKEAELDKYLENRVEEIIKKQGEGVPDLVHVMRTLASENIPSLPPGGELASKRNVIEAVYNRLNPYKNDDTDSASTDDMW		13.1	0.39	the PP2Ca, b and g demonstrated similar initial rates of dephosphorylation	0.31	23000	
recombinant His-tagged PP2Cg (protein phosphatase 2C gamma isoform) cloned from rat striatum (protein) MGAYLSQPNTVKCSGDGVGAPRLPLPYGFSAMQGWRVSMEDAHNCIPELDNETAMFSVYDGHGGEEVALYCAKYLPDIIKDQKAYKEGKLQKALQDAFLAIDAKLTTDEVIKELAQIAGRPTEDEDDKEKVADEDDVDNEEAALLHEEATMTIEELLTRYGQNCQKGPPHTKSGTGIGDEPEPQGLNGEAGPEDPSRETPSQENGPTAKGHTGPSSNSDHGTEAGQIGEPGTATGEAGPSCSSASDKLPRVAKSKFFEDSEDESDEVEEEEDDSEECSEDEDGYSSEEAENEEDEDDTEEAEEDDDEEMMVPGMEGKEEPGSDSGTTAVVALIRGKQLIVANAGDSRCVVSEAGKALDMSYDHKPEDEVELARIKNAGGKVTMDGRVNGGLNLSRAIGDHFYKRNKNLPPQEQMISALPDIKVLTLTDDHEFMVIACDGIWNVMSSQEVVDFIQSKISQRDENGELRLLSSIVEELLDQCLAPDTSGDGTGCDNMTCIIICFKPRNTVELQPESGKRKLEEALSTEGAEENGNSDKKKAKRD		7	0.31	the PP2Ca, b and g demonstrated similar initial rates of dephosphorylation	0.32	45000	
